In patent US20160160255A1, “Methods and Materials for Producing 6-Carbon Monomers” (INVISTA North America S.á.r.l., priority 2014, published 2016):

B1: SEQ ID NO 8: Pseudomonas aeruginosa ω-transaminase, Genbank Accession No. AAG08191.1, N-terminal His-tagged (protein, listed as Pseudomonas aeruginosa)
chain: MNARLHATSPLGDADLVRADQAHYMHGYHVFDDHRVNGSLNIAAGDGAYIYDTAGNRYLDAVGGMWCTNIGLGREEMARTVAEQTRLLAYSNPFCDMANPRAIELCRKLAELAPGDLDHVFLTTGGSTAVDTAIRLMHYYQNCRGKRAKKHVITRINAYHGSTFLGMSLGGKSADRPAEFDFLDERIHHLACPYYYRAPEGLGEAEFLDGLVDEFERKILELGADRVGAFISEPVFGSGGVIVPPAGYHRRMWELCQRYDVLYISDEVVTSFGRLGHFFASQAVFGVQPDIILTAKGLTSGYQPLGACIFSRRIWEVIAEPDKGRCFSHGFTYSGHPVACAAALKNIEIIEREGLLAHADEVGRYFEERLQSLRDLPIVGDVRGMRFMACVEFVADKASKALFPESLNIGEWVHLRAQKRGLLVRPIVHLNVMSPPLILTREQVDTVVRVLRESIEETVEDLVRAGHR
modifications: N-terminal His tag
B2: SEQ ID NO 7: Chromobacterium violaceum ω-transaminase, Genbank Accession No. AAQ59697.1, N-terminal His-tagged (protein, listed as Chromobacterium violaceum)
chain: MQKQRTTSQWRELDAAHHLHPFTDTASLNQAGARVMTRGEGVYLWDSEGNKIIDGMAGLWCVNVGYGRKDFAEAARRQMEELPFYNTFFKTTHPAVVELSSLLAEVTPAGFDRVFYTNSGSESVDTMIRMVRRYWDVQGKPEKKTLIGRWNGYHGSTIGGASLGGMKYMHEQGDLPIPGMAHIEQPWWYKHGKDMTPDEFGVVAARWLEEKILEIGADKVAAFVGEPIQGAGGVIVPPATYWPEIERICRKYDVLLVADEVICGFGRTGEWFGHQHFGFQPDLFTAAKGLSSGYLPIGAVFVGKRVAEGLIAGGDFNHGFTYSGHPVCAAVAHANVAALRDEGIVQRVKDDIGPYMQKRWRETFSRFEHVDDVRGVGMVQAFTLVKNKAKRELFPDFGEIGTLCRDIFFRNNLIMRACGDHIVSAPPLVMTRAEVDEMLAVAERCLEEFEQTLKARGLA
modifications: N-terminal His tag
B3: SEQ ID NO 9: Pseudomonas syringae ω-transaminase, Genbank Accession No. AAY39893.1, N-terminal His-tagged (protein, listed as Pseudomonas syringae)
chain: MSANNPQTLEWQALSSEHHLAPFSDYKQLKEKGPRIITRAEGVYLWDSEGNKILDGMSGLWCVAIGYGREELADAASKQMRELPYYNLFFQTAHPPVLELAKAISDIAPEGMNHVFFTGSGSEGNDTMLRMVRHYWALKGQPNKKTIISRVNGYHGSTVAGASLGGMTYMHEQGDLPIPGVVHIPQPYWFGEGGDMTPDEFGIWAAEQLEKKILELGVENVGAFIAEPIQGAGGVIVPPDSYWPKIKEILSRYDILFAADEVICGFGRTSEWFGSDFYGLRPDMMTIAKGLTSGYVPMGGLIVRDEIVAVLNEGGDFNHGFTYSGHPVAAAVALENIRILREEKIVERVRSETAPYLQKRLRELSDHPLVGEVRGVGLLGAIELVKDKTTRERYTDKGAGMICRTFCFDNGLIMRAVGDTMIIAPPLVISFAQIDELVEKARTCLDLTLAVLQG
modifications: N-terminal His tag

Tests used:
[1] = ω-transaminase activity, adipate semialdehyde to 6-aminohexanoate (forward direction); assay type: biochemical; settings: cell free extract, 10 mM adipate semialdehyde, 10 mM L-alanine, pH 7.5, 25° C., 4 h, RP-HPLC
Experimental: (§1) A nucleotide sequence encoding a His-tag was added to the nucleic acid sequences from Chromobacterium violaceum, Pseudomonas aeruginosa, Pseudomonas syringae, Rhodobacter sphaeroides, and Vibrio fluvialis encoding the ω-transaminases of SEQ ID NOs: 7, 8, 9, 10 and 12, respectively (see FIG. 6) such that N-terminal HIS tagged ω-transaminases could be produced. Each of the resulting modified genes was cloned into a pET21a expression vector under control of the T7 promoter and each expression vector was transformed into a BL21[DE3] E. coli host. The resulting recombinant E. coli strains were cultivated at 37° C. in a 250 mL shake flask culture containing 50 mL LB media and antibiotic selection pressure, with shaking at 230 rpm. Each culture was induced overnight at 16° C. using 1 mM IPTG.
(§2) The pellet from each induced shake flask culture was harvested via centrifugation. Each pellet was resuspended and lysed via sonication. The cell debris was separated from the supernatant via centrifugation and the cell free extract was used immediately in enzyme activity assays.
Enzyme activity in the forward direction (i.e., adipate semialdehyde to 6-aminohexanoate) was confirmed for the transaminases of SEQ ID NO 7, SEQ ID NO 8, SEQ ID NO 9, SEQ ID NO 10 and SEQ ID NO 12. Enzyme activity assays were performed in a buffer composed of a final concentration of 50 mM HEPES buffer (pH=7.5), 10 mM adipate semialdehyde, 10 mM L-alanine and 100 μM pyridoxyl 5′ phosphate. Each enzyme activity assay reaction was initiated by adding a cell free extract of the ω-transaminase gene product or the empty vector control to the assay buffer containing the adipate semialdehyde and incubated at 25° C. for 4 h, with shaking at 250 rpm. The formation of pyruvate was quantified via RP-HPLC.

[2] = ω-transaminase activity, 6-aminohexanoate to adipate semialdehyde (reverse direction); assay type: biochemical; settings: cell free extract, 10 mM 6-aminohexanoate, 10 mM pyruvate, pH 7.5, 25° C., 24 h, RP-HPLC
Experimental: as §1, §2
Enzyme activity assays in the reverse direction (i.e., 6-aminohexanoate to adipate semialdehyde) were performed in a buffer composed of a final concentration of 50 mM HEPES buffer (pH=7.5), 10 mM 6-aminohexanoate, 10 mM pyruvate and 100 μM pyridoxyl 5′ phosphate. Each enzyme activity assay reaction was initiated by adding cell free extract of the ω-transaminase gene product or the empty vector control to the assay buffer containing the 6-aminohexanoate and incubated at 25° C. for 24 h, with shaking at 250 rpm. The formation of L-alanine from pyruvate was quantified via RP-HPLC.

Row | Molecule | acceptance of adipate semialdehyde as substrate (conversion of L-alanine to pyruvate vs empty vector control) [1] | acceptance of 6-aminohexanoate as substrate (conversion of pyruvate to L-alanine vs empty vector control) [2]
1 | SEQ ID NO 10: Rhodobacter sphaeroides ω-transaminase, Genbank Accession No. ABA81135.1, N-terminal His-tagged | accepted adipate semialdehyde as substrate | accepted 6-aminohexanote as substrate
2 | B1 | accepted adipate semialdehyde as substrate | –
3 | B2 | accepted adipate semialdehyde as substrate | accepted 6-aminohexanote as substrate
4 | B3 | accepted adipate semialdehyde as substrate | accepted 6-aminohexanote as substrate
